From patent publication US20210347908A1 (ELPISCIENCE SUZHOU BIOPHARMA, published 2021)
Like-named read-outs stand apart in the source and are kept apart here.

Tests used:
[1] = target: T1, Fc tagged human SIRPα v1 ECD recombinant protein (human, UniProt P78324 31-370); experiment: ELISA
T1 construct: range 1-370; cloned range M1-R370 includes the signal peptide; also called hSIRPα V1; not shown: human IgG Fc region (hFc) of the pCPC vector

[2] = target: T2, Fc tagged human SIRPα v2 ECD recombinant protein (human); experiment: ELISA
T2 construct: range 1-369; cloned range M1-R369 includes the signal peptide; also called hSIRPα V2

[3] = target: T3, Fc tagged human SIRPβ ECD recombinant protein (human, UniProt O00241 30-371); experiment: ELISA
T3 construct: range 1-371; cloned range includes the signal peptide; also called hSIRPβ; not shown: human IgG Fc region (hFc) of the pCPC vector
T3 sequence (O00241 30-371 limits assumed, form in doubt): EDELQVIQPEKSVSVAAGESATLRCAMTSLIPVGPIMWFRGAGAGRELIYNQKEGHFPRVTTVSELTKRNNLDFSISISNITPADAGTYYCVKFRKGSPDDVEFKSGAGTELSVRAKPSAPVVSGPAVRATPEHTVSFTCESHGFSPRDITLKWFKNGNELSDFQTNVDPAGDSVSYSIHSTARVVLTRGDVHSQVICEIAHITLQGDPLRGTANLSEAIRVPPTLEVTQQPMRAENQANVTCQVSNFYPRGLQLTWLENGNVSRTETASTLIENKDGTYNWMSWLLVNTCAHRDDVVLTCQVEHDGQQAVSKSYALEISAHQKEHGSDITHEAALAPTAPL

[4] = target: T4, Fc tagged human SIRPγ ECD recombinant protein (human, UniProt Q9P1W8 29-360); experiment: ELISA
T4 construct: range 1-360; cloned range includes the signal peptide; also called hSIRPγ; not shown: human IgG Fc region (hFc) of the pCPC vector
T4 sequence (Q9P1W8 29-360 limits assumed, form in doubt): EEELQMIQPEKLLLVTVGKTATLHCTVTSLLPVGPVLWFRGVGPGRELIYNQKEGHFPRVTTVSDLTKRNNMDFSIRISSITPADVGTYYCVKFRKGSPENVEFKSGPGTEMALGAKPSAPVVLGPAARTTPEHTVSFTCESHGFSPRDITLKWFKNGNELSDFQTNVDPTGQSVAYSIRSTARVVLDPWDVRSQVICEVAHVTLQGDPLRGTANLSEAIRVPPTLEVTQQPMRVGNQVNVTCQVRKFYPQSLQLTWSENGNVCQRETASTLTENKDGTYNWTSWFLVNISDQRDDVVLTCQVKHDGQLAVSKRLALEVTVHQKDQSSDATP

[5] = target: T5, 6×His tagged human SIRPα v8 ECD recombinant protein (human); experiment: ELISA
T5 construct: extracellular domain; bought; also called hSIRPα V8

[6] = target: T6, full length human SIRPα v1 stably expressed on CHOK1 cells (human, UniProt P78324 31-504); experiment: FACS on CHOK1 cells
T6 construct: whole, on cells; also called CHOK1-human SIRPα v1-1B4 cells; CHOK1-human SIRPα v1
Description: (§1) Species cross reactivity of the purified hybridoma antibodies against human, cyno and mouse SIRPα was determined by FACS assay using CHOK1-human SIRPα v1-1B4 cells, CHOK1-cyno SIRPα-2A2 cells, and CHOK1-C57BL/6 mouse SIRPα-2.22 cells, which stably expressing SIRPα protein. Briefly the antibodies were incubated with 2×10⁵ target cells at 4° C. for 1 hour. After washing, fluorescence labeled anti-mouse or anti-human IgG 2nd antibody (Life Technologies) was added and incubated at 4° C. for 1 hour. Geometric median fluorescence intensity was detected and EC₅₀ was calculated. In particular, it is noted, in contrast to the other antibodies tested in the same experiment, 060 cannot bind with cyno SIRPα and 035 has cross reactivity against C57BL/6 mouse SIRPα.

[7] = target: T7, full length cyno SIRPα stably expressed on CHOK1 cells (cynomolgus monkey, UniProt A0A2K5VYQ9 31-507); experiment: FACS on CHOK1 cells
T7 construct: whole, on cells; also called CHOK1-cyno SIRPα-2A2 cells; CHOK1-cyno SIRPα
T7 sequence: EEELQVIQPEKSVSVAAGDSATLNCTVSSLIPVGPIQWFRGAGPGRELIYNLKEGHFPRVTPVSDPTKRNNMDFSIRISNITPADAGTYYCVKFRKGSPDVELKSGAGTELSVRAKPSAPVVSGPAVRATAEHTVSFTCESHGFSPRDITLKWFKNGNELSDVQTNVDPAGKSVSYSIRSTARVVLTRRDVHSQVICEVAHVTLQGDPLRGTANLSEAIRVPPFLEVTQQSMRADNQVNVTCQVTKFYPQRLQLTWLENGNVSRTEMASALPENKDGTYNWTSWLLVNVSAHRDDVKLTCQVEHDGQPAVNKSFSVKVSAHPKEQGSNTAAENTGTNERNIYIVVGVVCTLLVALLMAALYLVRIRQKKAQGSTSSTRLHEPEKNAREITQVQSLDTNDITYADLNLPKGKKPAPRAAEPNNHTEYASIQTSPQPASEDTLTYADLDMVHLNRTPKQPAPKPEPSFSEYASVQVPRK
Description: as §1

[8] = target: T8, full length C57BL/6 mouse SIRPα stably expressed on CHOK1 cells (mouse (C57BL/6), UniProt P97797 32-513); experiment: FACS on CHOK1 cells
T8 construct: whole, on cells; also called CHOK1-C57BL/6 mouse SIRPα-2.22 cells
T8 sequence (looked up): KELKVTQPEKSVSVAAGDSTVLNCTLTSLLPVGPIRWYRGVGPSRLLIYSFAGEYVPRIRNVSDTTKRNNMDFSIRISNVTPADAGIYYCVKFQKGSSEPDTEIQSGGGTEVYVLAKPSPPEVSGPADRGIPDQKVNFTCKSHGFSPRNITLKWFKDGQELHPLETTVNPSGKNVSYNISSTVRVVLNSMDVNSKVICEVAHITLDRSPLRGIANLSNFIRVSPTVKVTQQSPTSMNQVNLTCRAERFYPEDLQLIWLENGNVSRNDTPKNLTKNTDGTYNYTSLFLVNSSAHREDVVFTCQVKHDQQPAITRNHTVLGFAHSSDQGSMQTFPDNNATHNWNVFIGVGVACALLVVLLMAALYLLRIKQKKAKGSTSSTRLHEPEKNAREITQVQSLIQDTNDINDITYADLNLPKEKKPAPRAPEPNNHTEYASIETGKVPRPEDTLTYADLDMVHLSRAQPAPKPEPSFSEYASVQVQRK
Description: as §1

[9] = target: T9, 6×His tagged human SIRPα v1 ECD recombinant protein (human, UniProt P78324 31-373); experiment: SPR (Biacore)
T9 construct: extracellular domain; bought; also called hSIRPα V1 (SPR antigen)
T9 sequence (P78324 other isoform, or with tags, fused parts or gaps): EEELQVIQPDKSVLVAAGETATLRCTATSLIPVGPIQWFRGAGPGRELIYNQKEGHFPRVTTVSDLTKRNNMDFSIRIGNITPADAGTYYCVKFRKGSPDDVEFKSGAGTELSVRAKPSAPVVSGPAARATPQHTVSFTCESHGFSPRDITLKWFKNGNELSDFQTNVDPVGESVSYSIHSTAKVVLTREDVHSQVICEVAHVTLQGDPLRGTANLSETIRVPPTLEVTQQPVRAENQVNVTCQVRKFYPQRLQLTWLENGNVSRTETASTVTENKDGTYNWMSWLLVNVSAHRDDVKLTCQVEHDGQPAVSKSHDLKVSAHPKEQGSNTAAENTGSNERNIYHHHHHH

[10] = target: T10, biotin labeled soluble human SIRPα v1 ECD recombinant protein (human, UniProt P78324 31-373, biotin labeled); experiment: competitive ELISA, hSIRPα/CD47 blocking
T10 construct: extracellular domain
T10 sequence (P78324 31-373): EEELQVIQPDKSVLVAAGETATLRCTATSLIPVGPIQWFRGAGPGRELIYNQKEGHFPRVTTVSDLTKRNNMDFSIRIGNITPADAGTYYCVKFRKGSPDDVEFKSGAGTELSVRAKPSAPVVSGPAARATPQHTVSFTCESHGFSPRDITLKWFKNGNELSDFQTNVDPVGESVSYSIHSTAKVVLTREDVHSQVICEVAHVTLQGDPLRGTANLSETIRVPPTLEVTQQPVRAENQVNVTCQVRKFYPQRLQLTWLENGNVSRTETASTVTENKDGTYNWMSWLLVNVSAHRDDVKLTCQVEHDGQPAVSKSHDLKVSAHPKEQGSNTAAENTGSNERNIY

[11] = target: T9, 6×His tagged human SIRPα v1 ECD …; experiment: SPR (Biacore), antibody captured
Description: Anti-SIRPα chimeric antibodies were characterized for binding affinity against human SIRPα v1, human SIRPα v2 and C57BL/6 mouse SIRPα using Biacore (GE). Briefly the antibodies to be tested were captured to CM5 chip (GE) using Human Antibody Capture Kit (GE). The antigens of 6×His tagged human SIRPα v1, human SIRPα v2 and C57BL/6 mouse SIRPα ECD recombinant proteins were serially diluted for multiple doses and injected at 30 μl/min for 180 s. Buffer flow was maintained for dissociation of 400 s. 3 M MgCl₂ was used for chip regeneration. The association and dissociation curves were fit with 1:1 binding model, and the Ka/Kd/KD values for each antibody were calculated.

[12] = target: T10, biotin labeled soluble human SIRPα v1 …; experiment: competitive ELISA; competitor 035
Description: (§2) Competitive ELISA assay was used for epitope binning of 9 functional antibodies. Briefly excessive competitor antibody and biotin labeled soluble human SIRPα v1 ECD recombinant protein were co-incubated with ELISA microplate coated antibody. After washing, HRP-SA was added and incubated at 37° C. for 1 hour. Then, […] of TMB solution (Biotechnology) was added. After incubation for 15 minutes at room temperature, the reaction was stopped by the addition of […] of 1N HCl. OD 450 nm was read. Competition ratio was calculated. The antibodies that can compete each other for binding to SIRPα have the similar binding epitope.

[13] = target: T1, Fc tagged human SIRPα v1 ECD …; experiment: ELISA; remark: listed apart in the source
Description: (§3) Binding specificity of the purified hybridoma antibodies against SIRP family members was detected by ELISA assay using recombinant proteins of Fc tagged human SIRPα v1 ECD, human SIRPα v2 ECD, human SIRPβ ECD and human SIRPγ ECD. Briefly the antibodies were incubated with ELISA microplate coated antigens at 37° C. for 1 hour. After washing, horseradish peroxidase (HRP) labeled anti-mouse or anti-human IgG 2nd Ab (Sigma) was added and incubated at 37° C. for 1 hour. Then, 100 μl/well of TMB solution (Biotechnology) was added. After incubation for 15 minutes at room temperature, the reaction was stopped by the addition of 50 μl of 1N HCl. OD 450 nm was read and EC₅₀ was calculated. Other than 060 and HEFLB, all of the antibodies as tested can bind with both human SIRPα v1 and SIRPα v2. 060 and HEFLB can bind with human SIRPα v1 but not v2. Other than 055, all of the antibodies as tested can bind with human SIRPβ. In comparison with other known anti-SIRPα antibodies, only 022, 035 and 050 can bind with human SIRPγ weakly.

[14] = target: T2, Fc tagged human SIRPα v2 ECD …; experiment: ELISA; remark: listed apart in the source
Description: as §3

[15] = target: T10, biotin labeled soluble human SIRPα v1 …; experiment: competitive ELISA; competitor 002
Description: as §2

[16] = target: T10, biotin labeled soluble human SIRPα v1 …; experiment: competitive ELISA; competitor 050
Description: as §2

[17] = target: T10, biotin labeled soluble human SIRPα v1 …; experiment: competitive ELISA; competitor KWAR23
Description: as §2

[18] = target: T10, biotin labeled soluble human SIRPα v1 …; experiment: competitive ELISA; competitor 055
Description: as §2

[19] = target: T10, biotin labeled soluble human SIRPα v1 …; experiment: competitive ELISA; competitor HEFLB
Description: as §2

[20] = target: T10, biotin labeled soluble human SIRPα v1 …; experiment: competitive ELISA; competitor 074
Description: as §2

[21] = target: T10, biotin labeled soluble human SIRPα v1 …; experiment: competitive ELISA; competitor 022
Description: as §2

[22] = target: T10, biotin labeled soluble human SIRPα v1 …; experiment: competitive ELISA; competitor 032
Description: as §2

[23] = target: T10, biotin labeled soluble human SIRPα v1 …; experiment: competitive ELISA; competitor 060
Description: as §2

[24] = target: T10, biotin labeled soluble human SIRPα v1 …; experiment: competitive ELISA; competitor 001
Description: as §2

[25] = target: T10, biotin labeled soluble human SIRPα v1 …; experiment: competitive ELISA; competitor 29-AM4-5
Description: as §2

T1 sequence (P78324 31-370 limits assumed): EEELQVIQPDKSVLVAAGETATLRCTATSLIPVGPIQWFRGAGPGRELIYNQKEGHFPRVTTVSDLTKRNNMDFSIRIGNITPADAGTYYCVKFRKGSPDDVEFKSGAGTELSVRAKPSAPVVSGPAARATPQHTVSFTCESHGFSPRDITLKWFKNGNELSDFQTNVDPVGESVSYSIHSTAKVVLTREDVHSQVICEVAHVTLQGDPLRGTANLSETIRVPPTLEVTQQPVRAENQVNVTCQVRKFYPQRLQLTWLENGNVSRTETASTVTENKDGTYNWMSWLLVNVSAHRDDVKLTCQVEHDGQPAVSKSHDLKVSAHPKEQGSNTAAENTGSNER

B1: humanized antibody hu035.02 (antibody, V domains shown)
VH: QIQLVQSGSELKKPGASVKVSCRARGYTLTDYAMNWVRQAPGQGLEWMGFINTYTGEPTYAQGFKGRFVFSLDTSVSTAYLQIGSLKAEDTAVYYCARTRGYYDFDGGAFDYWGQGTLVTVSS
VL: DIQMTQSPSSLSASVGDRVTITCRASQNVGTHLAWYQQKPGKAPKSLIYSASYRYIGVPSRFSGSGSGTDFTLTISSLQPEDFATYYCQQYNTYPLTFGQGTKLEIK
With B1 the EC50 [1] was 0.16 nM, the EC50 [2] was 0.16 nM and the EC50 [3] was 0.2 nM. It also gave an EC50 [4] of 6.24 nM, an EC50 [5] of 0.23 nM and an EC50 [6] of 0.97 nM. The EC50 [7] was 0.29 nM, the “MFI at 2 ug/ml” value [8] was 549 MFI and the Kd [9] was 1.64 nM. For the same binder, the IC50 [10] was 1.74 nM, the Kd [11] was 1.64 nM and the koff [11] was 0.00017 s⁻¹. For the same binder, the kon [11] was 104000 M⁻¹ s⁻¹.

B2: Antibody 055 (hybridoma antibody) (antibody, V domains shown)
VH: EVKLVESEGGLVQPGDSMKLSCTASGFTFSDYFMTWIRQVPEKGLEWIANVNYDGRSTYYLDSLKSRFIISRDNANNILYLQMSSLKSEDTATYYCAREGSQTPLYAVDYWGQGTSVTVSS
VL: DIVMTQSQKFMSTTVGDRVNITCKASQNVGTAVAWYQQKPGQSPKLLIYLASNRYTGVPDRFTGSGSGTDFTLTVSDMRSEDLADYFCQQYSIYPFTFGSGTKLEIK
notes: mouse hybridoma antibody
B2 was tested, and the “% Competition” value [12] was 8%, the EC50 [13] was 0.04 nM and the EC50 [14] was 0.04 nM. The “% Competition” value [15] was -8%, the “% Competition” value [16] was 7% and the “% Competition” value [17] was 45%. The “% Competition” value [18] was 91%, the “% Competition” value [19] was -10% and the “% Competition” value [20] was 3%. For the same binder, the “% Competition” value [21] was 2%, the “% Competition” value [22] was -1% and the “% Competition” value [23] was 8%. The EC50 [6] was 1.2 nM, the “MFI at 10 nM” value [7] was 4670 MFI and the binding result [8] was “no binding (tested: 100 nM)”. The “% Competition” value [24] was -3% and the “% Competition” value [25] was 14%.
